According to patent publication US20100015139A1:

Experiments:
[1] = molecular target: Ba protein (Ba fragment of factor B) (human) (UniProt P00751); assay: ELISA; antibody titrated on Ba-coated wells
human factor B (human) [2] = molecular target: human factor B (human) (UniProt P00751); assay: cell-based or functional assay
human factor B (human) [3] = molecular target: human factor B (human) (UniProt P00751); assay: competition ELISA; Anti-Ba varied, factor B binding to C3b or properdin-bound C3b; range told for both formats
human factor B (human) [4] = molecular target: human factor B (human) (UniProt P00751); assay: competition ELISA; Anti-Ba varied, factor B binding to properdin-bound C3b on plates
human factor B (human) [5] = molecular target: human factor B (human) (UniProt P00751); assay: competition ELISA; Anti-Ba varied, factor B binding to C3b-coated plates

Sequence of human factor B (human) (P00751 other isoform, or with tags, fused parts or gaps limits assumed): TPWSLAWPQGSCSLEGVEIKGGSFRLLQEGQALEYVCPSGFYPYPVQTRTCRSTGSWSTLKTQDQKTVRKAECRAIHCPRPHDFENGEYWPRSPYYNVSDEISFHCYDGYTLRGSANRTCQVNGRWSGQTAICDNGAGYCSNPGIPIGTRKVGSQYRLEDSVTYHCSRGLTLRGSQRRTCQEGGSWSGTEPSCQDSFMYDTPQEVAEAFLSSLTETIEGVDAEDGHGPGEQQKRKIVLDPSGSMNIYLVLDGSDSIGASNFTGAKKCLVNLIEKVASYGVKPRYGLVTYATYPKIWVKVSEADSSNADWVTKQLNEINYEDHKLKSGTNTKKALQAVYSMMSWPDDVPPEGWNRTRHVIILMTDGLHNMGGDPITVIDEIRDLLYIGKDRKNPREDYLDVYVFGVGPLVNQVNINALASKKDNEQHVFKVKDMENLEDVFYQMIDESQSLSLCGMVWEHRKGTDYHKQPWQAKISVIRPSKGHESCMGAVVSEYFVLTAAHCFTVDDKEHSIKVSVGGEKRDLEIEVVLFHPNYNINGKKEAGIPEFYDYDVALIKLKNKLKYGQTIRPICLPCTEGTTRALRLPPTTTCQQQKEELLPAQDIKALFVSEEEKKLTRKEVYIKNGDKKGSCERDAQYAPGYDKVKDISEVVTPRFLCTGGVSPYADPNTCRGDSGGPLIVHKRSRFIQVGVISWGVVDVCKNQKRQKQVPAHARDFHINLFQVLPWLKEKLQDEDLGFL
Sequence of Ba protein (Ba fragment of factor B) (human) (P00751 other isoform, or with tags, fused parts or gaps limits assumed): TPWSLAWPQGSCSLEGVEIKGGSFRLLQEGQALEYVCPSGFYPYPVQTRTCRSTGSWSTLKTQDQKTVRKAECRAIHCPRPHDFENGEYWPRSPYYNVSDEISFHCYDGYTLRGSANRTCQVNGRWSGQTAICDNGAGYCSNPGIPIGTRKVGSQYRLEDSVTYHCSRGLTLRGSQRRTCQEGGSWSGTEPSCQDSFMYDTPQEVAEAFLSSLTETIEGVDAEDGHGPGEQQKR

anti-factor Ba monoclonal antibody (Quidel A225, murine)
Kd [1]: 9.65 nM | Inhibition of C5b-9 formation in normal human serum on LPS coated plates (AP dependent C3-convertase formation) (human factor B (human) [2]): 527 nM | Inhibition of alternative pathway-dependent hemolysis of rabbit erythrocytes in 10% normal human serum (human factor B (human) [2]): 125 µg/mL | IC50 (human factor B (human) [3]): 200 to 500 nM | IC50 (human factor B (human) [4]): 234 nM | IC50 (human factor B (human) [5]): 556 nM
